Legend:
[1] = biological target: 구제역 바이러스 혈청형 O 배양액(cal1~cal4) (Foot-and-mouth disease virus serotype O); assay: sandwich ELISA, cal1, 1E58 coat 1 ug/ml, 1E58-HRP 0.8 ug/ml, 450 nm
[2] = biological target: 구제역 바이러스 혈청형 O 배양액(cal1~cal4) (Foot-and-mouth disease virus serotype O); assay: sandwich ELISA, cal1, 1E58 coat 2 ug/ml, 1E58-HRP 0.6 ug/ml, 450 nm
[3] = biological target: 구제역 바이러스 혈청형 O 배양액(cal1~cal4) (Foot-and-mouth disease virus serotype O); assay: sandwich ELISA, cal1, 1E58 coat 4 ug/ml, 1E58-HRP 0.2 ug/ml, 450 nm
[4] = biological target: 구제역 바이러스 혈청형 O 배양액(cal1~cal4) (Foot-and-mouth disease virus serotype O); assay: sandwich ELISA, cal1, 1E58 coat 4 ug/ml, 1E58-HRP 0.4 ug/ml, 450 nm
[5] = biological target: 구제역 바이러스 혈청형 O 배양액(cal1~cal4) (Foot-and-mouth disease virus serotype O); assay: sandwich ELISA, cal2, 1E58 coat 2 ug/ml, 1E58-HRP 0.4 ug/ml, 450 nm
[6] = biological target: 구제역 바이러스 혈청형 O 배양액(cal1~cal4) (Foot-and-mouth disease virus serotype O); assay: sandwich ELISA, cal2, 1E58 coat 8 ug/ml, 1E58-HRP 0.2 ug/ml, 450 nm
[7] = biological target: 구제역 바이러스 혈청형 O 배양액(cal1~cal4) (Foot-and-mouth disease virus serotype O); assay: sandwich ELISA, cal2, 1E58 coat 8 ug/ml, 1E58-HRP 0.6 ug/ml, 450 nm
[8] = biological target: 구제역 바이러스 혈청형 O 배양액(cal1~cal4) (Foot-and-mouth disease virus serotype O); assay: sandwich ELISA, cal3, 1E58 coat 1 ug/ml, 1E58-HRP 0.6 ug/ml, 450 nm
[9] = biological target: 구제역 바이러스 혈청형 O 배양액(cal1~cal4) (Foot-and-mouth disease virus serotype O); assay: sandwich ELISA, cal3, 1E58 coat 2 ug/ml, 1E58-HRP 0.4 ug/ml, 450 nm
[10] = biological target: 구제역 바이러스 혈청형 O 배양액(cal1~cal4) (Foot-and-mouth disease virus serotype O); assay: sandwich ELISA, cal3, 1E58 coat 4 ug/ml, 1E58-HRP 0.2 ug/ml, 450 nm
[11] = biological target: 구제역 바이러스 혈청형 O 배양액(cal1~cal4) (Foot-and-mouth disease virus serotype O); assay: sandwich ELISA, cal3, 1E58 coat 4 ug/ml, 1E58-HRP 0.8 ug/ml, 450 nm
[12] = biological target: 구제역 바이러스 혈청형 O 배양액(cal1~cal4) (Foot-and-mouth disease virus serotype O); assay: sandwich ELISA, cal3, 1E58 coat 8 ug/ml, 1E58-HRP 0.8 ug/ml, 450 nm
[13] = biological target: 구제역 바이러스 혈청형 O 배양액(cal1~cal4) (Foot-and-mouth disease virus serotype O); assay: sandwich ELISA, cal4, 1E58 coat 1 ug/ml, 1E58-HRP 0.8 ug/ml, 450 nm
[14] = biological target: 구제역 바이러스 혈청형 O 배양액(cal1~cal4) (Foot-and-mouth disease virus serotype O); assay: sandwich ELISA, cal4, 1E58 coat 4 ug/ml, 1E58-HRP 0.4 ug/ml, 450 nm
[15] = biological target: 구제역 바이러스 혈청형 O 배양액(cal1~cal4) (Foot-and-mouth disease virus serotype O); assay: sandwich ELISA, cal4, 1E58 coat 8 ug/ml, 1E58-HRP 0.2 ug/ml, 450 nm
[16] = biological target: 구제역 바이러스 혈청형 O 배양액(cal1~cal4) (Foot-and-mouth disease virus serotype O); assay: sandwich ELISA, cal4, 1E58 coat 8 ug/ml, 1E58-HRP 0.6 ug/ml, 450 nm
[17] = biological target: FMDV 혈청형 A Malaysia97 (Foot-and-mouth disease virus serotype A); assay: sandwich ELISA, 1E58 coat 4 ug/ml, 1E58-HRP 0.3 ug/ml, virus culture fluid
[18] = biological target: FMDV 혈청형 A 연천주 (Foot-and-mouth disease virus serotype A); assay: as above
[19] = biological target: FMDV 혈청형 A 포천주 (Foot-and-mouth disease virus serotype A); assay: as above
[20] = biological target: FMDV 혈청형 Asia1 CAM/9/80 (Foot-and-mouth disease virus serotype Asia1); assay: as above
[21] = biological target: FMDV 혈청형 C C3/Resende/BRA/55 (Foot-and-mouth disease virus serotype C); assay: as above
[22] = biological target: FMDV 혈청형 O O/Hapcheon/KOR/2014 (Foot-and-mouth disease virus serotype O); assay: as above
[23] = biological target: FMDV 혈청형 O Primorsky (Foot-and-mouth disease virus serotype O); assay: as above
[24] = biological target: FMDV 혈청형 O Yunlin/Taiwan/97 (Foot-and-mouth disease virus serotype O); assay: as above
[25] = biological target: FMDV 혈청형 O 김제 (Foot-and-mouth disease virus serotype O); assay: as above
[26] = biological target: FMDV 혈청형 O 보은 1차 (Foot-and-mouth disease virus serotype O); assay: as above
[27] = biological target: FMDV 혈청형 SAT1 SAT1/BOT/1/68 (Foot-and-mouth disease virus serotype SAT1); assay: as above
[28] = biological target: FMDV 혈청형 SAT2 SAT2/ZIM/5/81 (Foot-and-mouth disease virus serotype SAT2); assay: as above
[29] = biological target: FMDV 혈청형 SAT3 SAT3/ZIM/4/81 (Foot-and-mouth disease virus serotype SAT3); assay: as above

B1: 단클론항체 1E58 (antibody, V domains shown)
VH: EFQLQQSRPELAKPGASVKISCKTSGHTFTTYTMHWVKQSHVKSLEWIGCFNPNNGGATYNQKFKGKATLTMDKSSNTAYVEVRSLTSDDSAVYYCAYGNYVNFDYWGQGTTLTVSS
VL: DIVLTQSPASLAVSLGQRATISYRASKSVSTSGYSYMHWNQQKPGQPPRLLIYLVSNLESGVPARFSGSGSGTDFTLNIHPVEEEDAATYYCQHIRELTRSEGGPSWKN
O.D [1]: 3.21 O.D
O.D [2]: 3.68 O.D
O.D [3]: 3.47 O.D
O.D [4]: 3.15 O.D
O.D [5]: 2.49 O.D
O.D [6]: 1.24 O.D
O.D [7]: 1.84 O.D
O.D [8]: 0.83 O.D
O.D [9]: 1.37 O.D
O.D [10]: 1.14 O.D
O.D [11]: 2.65 O.D
O.D [12]: 1.31 O.D
O.D [13]: 1.07 O.D
O.D [14]: 0.88 O.D
O.D [15]: 0.27 O.D
O.D [16]: 0.62 O.D
O.D (450nm) [17]: 4 O.D
O.D (450nm) [18]: 3.5 O.D
O.D (450nm) [19]: 3.87 O.D
O.D (450nm) [20]: 4 O.D
O.D (450nm) [21]: 3.75 O.D
O.D (450nm) [22]: 3.99 O.D
O.D (450nm) [23]: 4 O.D
O.D (450nm) [24]: 4 O.D
O.D (450nm) [25]: 4 O.D
O.D (450nm) [26]: 3.64 O.D
O.D (450nm) [27]: 2.22 O.D
O.D (450nm) [28]: 1.95 O.D
O.D (450nm) [29]: 3.6 O.D

Source: patent KR20200059381A
